The text below walks through data of a protein production outcome set (Wang et al. 2014).

A short description of this data set: label from the status in PepcDB records.
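Also: failed if final PepcDB status was selected cloned or expressed and not failed if soluble or beyond.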

Take “MILLCFPGSEQGIGMHQFEFLGQLVLIGALAIVNILVFQKIRIPPVIGLIFTGIMLGPTGFHVIRNSGLISTLAEMGVVLLLFTIGLEFSADDLKKLRKIVLFGGTAQILLTGLVIAMFSYWLMDAIGKSVGSKEALVLGFSFSVSSTALCLKILSDRGELGFDHGKIALGILIFQDMAIVPLMFGFSFLTRGSSMPLESSFEEIALLLLFAIGMFGGFRLLMPKIVRIITELHAGEVLVLGALVLCFGAAWLASLIGLSLALGAFMAGMVIASTDGSHRISRTIDPFREAMTSIFFVSVGLLLDVNMIELPWLIAIALVVLVVKGLIMTGILMALGFSLRVSLMSGMVLAQIGEFSFVLAGTAKDAGLLDQHMFQSMLAVIVVTMIVTPALISAAPKFAAQVAPALGFMPLASKPEPKQPARAAAGPIVCRGEIHAAIIGFGLIGRNIAAVMNATNLNYTVLDTDRKTVKTMRRQGEPLFYGDCTERKSLLRIGVDHSRAVVICIPEIDAAIQCIRLVREINPGAFIIVRSRSLESTNRFYRAGADAAVTELFETSIQMFSELLKHFRVEPETILAQQEIIRREGGNIFRELVTETDGSGDDPAKKSQNGAGFVTSET”: the protein production entry was “failed”.

On to “MILLIMNTDDFQFFIRVADCGSLSKAAQEANISVSVASQRIQRLESTLKLRLFYRTTRKITLTDEGRKLLDFGRYWLDDFITLKDTLTARDKPLTGNLRVTTSATFGIKILTKVIANFALLHPTLNIYLDLNDQNIDLIEHGMDLAIRIGKLNDSSLVAKPLMTNHRLICAAPSYLNQYGMPHSIEDLQQHRCILQQHQNGLTDHWQLIDQKRTVVDVHLKAYFTTNSGEAIRQAALQGLGISNHSRWHVADDLEQGHLIELLPEYQIEPTTIYAVFPNRQFRQPKTELFLSYLQNYFKHEYPWNIRKN”, for which the protein production result is recorded as “failed”.

For “MILMHPKGLIKRDDIIYLSIFIVVFLIALRNYMISPPYTLGDTTILPSTNPGLYTPSATIQYYLSLLIGENNLIKTLNFLAFIIAPISIYFTLGRKGDFFKRLILPLIFTLNPISISIFYDGNGEGILLVYSLQPLVYYLTYKMLYEVKNRLKYLIYLSIVEVVGQIFFFQMFLFSLFFQLPFILLSIKERKYLFLVYPILADLLGFLSELSWEVYLYIGVVPSVLVSPSNTLVRLGLAYYSTIVSALLFAIVITTAFIYRNKYALATLTSVGILLVIYAILQNFRFDIPVISALLAAITTFQTKVYLLSFGLLDLSLFYLKRTREFIIPLLSLLLIVLLVNTGGLQATTYSIFSFKPQPMPSWYYELYDYLSQNNPNNVYSLATQYQYLQYLPGFSGFIYDTSFIHNLTNPFYGMKYLISTSQMNYTGLRLVKTFGPVLVYYNENFTGLVHYLNGSPVSNYSISDMEIRIYDGNPPFVVSLPYSEYWTSAENYNGFLELTTNISQNSLTSLVHELFFVSLFFLILPFILLILEKTPMKTLIVGR”, the protein production entry is on record as “failed”. Turning to “MILNIVTIVSNFIFIALFYQLFVDLFDWSKMIKMSPQNISKLKVFILLISIVGGYVVSHFLLEVIQLCQSIFWALQ”, the protein production entry is “failed”.

Take “MILTPLALTPDHDIPGPVLTELTALYASHRAFHALSGDFPDPEDIRPEQVATALADELARPGAEVLLARDAGRLVGVAVTLARHPDPSDPDPWIGLLMVDAGLTRQGHGSRLVSLVEDRFRAAGRTAVRLAVLDGNTDALSFWTALGYRVLDHRRDLGAERPCTVLRRELASDKPRTPRRAARVAVLDPEGAVFLLRYDNVEVGVHWAMPGGGLEADENPREGALREVREETGWTDLEPGPLLCTWEHDFTHLSVGPVRQYEHIYVAQGPRREPTGPHLAAAHAADGILTWRWWSRAELAEAPEPLWPPDLALLLETFGGREG”: the protein production result is “failed”.

Turning to “MILVFLDNMASIKDLNLIDEINDSSNLKLINDRLKLLFWTKNPEITDEENKKKYLDFLNEYWDTLRAYGAGDLELFPDKINYLTLILAANSKNHNIYIKKLAEKYAEKIPIEDGDSKINIWDFIDVAANSRNNDLHLERMILEGDTVLLNQKNQSIYNFEKIRLKLKNYVEKVRNAEMPKEIKDLLVKKSEEAFEGINIGYNIESGIKVSTKEYSGEIPEDWHPPCMREILNDILSGGSPSHYARRSFVVYRFVSQFDPNLRPIEEGIITNRSAQDIATEEQIERFLDEIINIFKSVGDFDVEKTKYYISHNIGYKVANHITHCEYCKNWRDDGGKGLGYYCRPDSTCSRKDIIHPLDYLCHNINRHVKKSELEHHHHHH”, the protein production entry is given as “failed”.

As for “MIMARTSNIFARVEPEVKEQAEQVLEQLGIPMSSAVSMFLKQVVLQRGIPFEMKLPKDTPPSYSSLTKEQFNAEIEKGMLDIEAGRTYPMKSVEEEMKRDYGLLEHHHHHH”, the protein production result is on record as “not failed”.

In the case of “MIMASSAAASISMITLRNLSRNHQSHQSTFLGFSRSFHNQRISSNSPGLSTRARSTTSSTGGFFRTICSSSSNDYSRPTKIQELNVYEFNEGDRNSPAVLKLGKKPDQLCLGDLVPFTNKLYTGDLTKRIGITAGLCVLIQHVPEKKGDRFEASYSFYFGDYGHISVQGPYLTYEDTFLAITGGSGVFEGAYGQVKLRQLVYPTKLFYTFYLKGVAADLPVELTGKHVEPSKEVKPAAEAQATQPGATIANFTN”, the protein production result is reported as “failed”. For the sequence “MIMHIPKSTYYHKWFIGATLVVPVLPLAAQTSPNLVFIMADQYRGDALGCLGKEPVKTPCLDHLASEGVLFTNAVSSYPVSSPARAMLMTGMYPLHNKVTGNCNSQTAPYGVELPQEARCWSDVLKDMNYRTGYIGKWHLDSPYKPYVDTYNNRGKVAWNEWCPPERRHGFEYWTAYGTYDYHLKPMYWDTTAPRDSFYYVNQWGPAYEADKAIEYIQTQKENKQPFALVVSMNPPHTGYELVPDKYKALYKDIDVEALCAHRPDIPAKGTEMGNYFRNNIRNYYACITGVDEQVGRIIETLKSNGLFENTIIVFTSDHGICMGAHNNAGKDIFYEEAMRIPMIISWPAKIKPRKDDHLMIAFADLYPSLLSLMGFRKEIPETVQTFDLSRHILGKSKKEVVQPYYYVQFDNHATGYRGLRTSTHTFAVHATNGKIDETVLFDRTKDPYQMDNIAGQSPRLVRQFNKQLKAWLLHTNDSFAHYLETVTKLEHHHHHH”, the protein production entry is recorded as “not failed”. The result for “MIMKISMAMCKQPLPPSPTLDFPPARFGPNMLTLNPYGPKDKVVVIMGATGTGKSRLSVDIATRFRAEIINSDKIQVHQGLDIVTNKITSEESCGVPHHLLGVLPPEADLTAANYCHMANLSIESVLNRGKLPIIVGGSNSYVEALVDDKENKFRSRYDCCFLWVDVALPVLHGFVSERVDKMVESGMVEEVREFFDFSNSDYSRGIKKAIGFPEFDRFFRNEQFLNVEDREELLSKVLEEIKRNTFELACRQREKIERLRKVKKWSIQRVDATPVFTKRRSKMDANVAWERLVAGPSTDTVSRFLLDIASRRPLVEASTAVAAAMERELSRCLVA” reads “failed”; that for “MIMSVCLPWLARCRRFLIVSLAFAMLLLGIWGTLPFSLSDHGTAIAALEDDRYDGNIFVVYAGNGSLVPPRLNLRESFERKLPVILVYYLDDSKDCKQYAFIVSRMQEFYGRVASIIPVSVDSIPDQKRFRRDEPGYYYSGGVPQTVILDKSGKKIFDAQGALKFEVVDDVLRDLFDLLPRSESMELKQRTYNEFNSELVD”, “failed”; that for “MINKKTTSENRRILQIAVPSIISNITVPLLGLIDVTIVGHLGSPAYIGAIAVGGMLFNIIYWIFGFLRMGTSGMTSQAYGQHDLNEINRLLIRSVGVGLFIALCLLILQYPILNAAFTLIQTTEEVKQLATTYFYICIWGAPAMLGLYGFAGWFIGMQNSRFPMYIAITQNIVNIIASLSFVYLLDMKVAGVAAGTLIAQYAGFFMAILLYMRYYSTLRKRIVWKDIIQKQAMYRFFRVNRDIFFRTLCLVIVTMFFTSAGAAQGEVVLAVNTLLMQLFTLFSYIMDGFAYAGEALAGRYIGARNQTALRNTVNHLFYWGIGLSAAFTLLYAIGGKEFLGLLTNDVSVISSSDTYFYWALAIPLTGFSAFLWDGVFIGATATRQMLYSMLVASVSFFMIYYAFHNLLGNHALWLAFITYLSLRGIVQTFIGREIVKKAI”, “failed”. “MINKTLTVTLTSIAALAGLSGLANAQEYTNSTHTTSQQSNTYNSQVEQETNLGLTNKDIVKVKDGDTLYQIALSHHLSLEQLYNFNPGVTALIHPGDLIAVSEKGAAKLENKEINYAQTYAETTAFNQSDVVAQSVSASTTNVTGYNIVPTSAPTNTMHDSYHSSVNTPVSYQHVTTANQGNRYSFGNCTYYAFDRRQQLGRSIGSYWGNANNWAYSAKNAGLTVDNRPEVGAIFQTTAGYYGHVGVVEHVNQDGSVYVSEMNWNGHYNRVTNRTITNTSSYNFIH”: the protein production entry was “failed”.

With “MINKVLLEGQRITRSPQVKQHACGASFFLVVLLLIGGLLYSTISWMWDEQRLPLSKLVLQGDLHYVSALDVQRVLARLDHIGTFMSQDINVLQESVQSIPWVSHASIRKQWPDTIKVYLTEYQVEALWNANALLDKNGTVFYGDIARVNGEYVKLYGPDGTAPQVLKAWRDYNPKFAQLGLNISSLVLNDRRAWQIILDNGIRLELGKESLEERISRFFLLYKQLGNKAEQVSYIDLRYDTGAAVGWFPEQELTQEKNDD”, the protein production entry is recorded as “failed”. For the sequence “MINMKVAISMDVDKISNSFEDCKYFLIVRIDDNEVKSTKVIFNDESGKKSIVKENVNAIICKNISEENYKKFSKKIEIYHAEGDDVDKNISLFIEGELSKISNP”, the protein production result is on record as “not failed”. For “MINQATSPAAPISLTTKGLRWANLAFMLYLLLLAVAMVGSGFKWATGDQAKVLFEFASHPIAGLMIGLVATALIQSSSTVTSIIVGLVAGGLPVETAIPMVMGANIGTTVTNTLVSLGHMRCKEEFRRAFASATIHDFFNLLAVLIFLPLEMMFGILEKVSHWLVSPLLATGDMSMKGFDFIKPITKPVITGLETQLSVLGNTFGGVALIVLGIATIFVAITVMGKLMKSLMVGRAREILQNAIGRGPLHGIASGTVVTVLVQSSSTTTSLMVPLVGSGVLKVREIYPFTLGANIGTCITALLAATAVSGEFAVFALQIALVHLSFNLMATVLIYGIPFLRELPIKGAELISTWACKSKMVVVSYLLGVFVVIPGSILALTA”, the protein production entry is reported as “failed”.

Take “MINSVGVVRKEAENCNCLQVFFVSGSFKVDSVEAKKKEENFRETLRDMANSKYEYVKSFELEDEVMLPNLMVVRIDGRDFSRFSQVHEFEKPNDETALNLMNSCSAAVLEEFPDIIFAYGYSDEYSFVFKKTSRFYQRRASKILSLVASFFAAVYVTKWKEFFPQRKLLYAPSFSSKVVSCASAEVLQAYLAWRQQDCHANNQYDTCFWMLVKSGKSVSETQEILKDTQKQQKNELLFQKFGINYKTLPELFRQGSCLFKKKVEETVKHDENGNPVKRLRRKAVFVHSENIAGRSFWNEQPSLYNDLGHFTKDIGKIEPDFIRSFQFENKLLPLTWVVVRIDGCHFHRFSDVHEFEKPNDEQALKLMNSCAVAVLEEFEDIHFAYGVSDEYSFVLKKESELYKRQSSKIISAVASFFTSTYVLQWGEFFPHKELKYPPSFDGRAVCYPTYNILLDYLAWRQVDCHINNQYNTCFWMLVKSGKNKTQSQDYLKGTQTREKNELLSRQFGIEYNSLPVIFRMGSSVFRLKEAENGVVSGKKLEGEVVVDHCNIIERCFWEEHLHILSYS”: the protein production entry is “failed”. Regarding “MINVLILGAASQISRFLIPDLLADKTVYLTLFARQAPQRLGQYAGESRVTLVDGDWNQEADIEQVMSNQDIVFLASSSLVGNQNVVTVMKHTGVQRLIVAGGLGIDDEVAGKFGNWNTRMMGDYTPYKQAAKVILDSGLNTTYLRMTWLYDENGNEKYQIVPEGQPLRGTQVTRQAVAKLVTAIVRQPSLYQYANIGVVEPGTEWDKPSFYLEHHHHHH”, the protein production entry was “failed”. On to “MIPFPESRLAAQMSFVVEIDKLKTILRQTLLTDSSRRENDAEHSWHIATMAFLLAEYADEAVQIGRVARMLLIHDIVEIDAGDTFIHDEAGNEDKEERERKAAARLFGLLPPDQAAEYSALWQEYEARETADARFADALDRLQPLLHNFETEGGTWKPHGVTRAKVDKLLPRIEAGSKRLGAYARALVDEAVRRGYLAP”, for which the protein production result is reported as “not failed”.
